To fix the notation:
B1: C-mTCRpG1 (bispecific antibody, human IgG1, kappa)
heavy: not shown
light 1: not shown
light 2: DIQMTQSPSSLSASVGDRVTITCSASSSVTYMYWYQQKPGKAPKLLIYDTSNLASGVPSRFSGSGSGTDYTFTISSLQPEDIATYYCQQWSSHIFTFGQGTKVEIKKVFPPEVAVFEPSEAEISHTQKATLVCLATGFFPDHVELSWWVNGKEVHSGVSTDPQPLKEQPALNDSRYCLSSRLRVSATFWQNPRNHFRCQVQFYGLSENDEWTQDRAKPVTQIVSAEAWGRADC
notes: Anti-EGFR (matuzumab TCR-Fab) / anti-HER-2 (pertuzumab IgG-Fab) IgG-(Fab)2, Format 1
B2: N-mTCRpG1 (bispecific antibody, human IgG1, kappa)
heavy: not shown
light 1: not shown
light 2: B1 light 2
notes: Anti-EGFR (matuzumab TCR-Fab) / anti-HER-2 (pertuzumab IgG) IgG-(Fab)2, Format 3; also called N-mTCRpG1ds
B3: mTCR-G1(-) (antibody, human IgG1)
heavy: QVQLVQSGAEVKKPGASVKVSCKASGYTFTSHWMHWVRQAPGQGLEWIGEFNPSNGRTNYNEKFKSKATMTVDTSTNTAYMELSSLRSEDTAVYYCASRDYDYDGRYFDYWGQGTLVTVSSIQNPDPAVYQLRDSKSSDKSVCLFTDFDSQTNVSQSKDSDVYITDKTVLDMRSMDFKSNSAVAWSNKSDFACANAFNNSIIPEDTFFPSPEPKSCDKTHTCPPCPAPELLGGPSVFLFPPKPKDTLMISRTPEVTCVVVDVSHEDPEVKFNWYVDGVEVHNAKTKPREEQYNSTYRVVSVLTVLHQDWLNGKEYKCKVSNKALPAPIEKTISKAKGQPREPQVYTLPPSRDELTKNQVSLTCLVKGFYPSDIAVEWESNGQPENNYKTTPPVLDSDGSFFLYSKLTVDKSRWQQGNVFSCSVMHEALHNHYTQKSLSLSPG
light: B1 light 2
notes: Matuzumab Fv in IgG-TCR format (anti-EGFR IgG-TCR control)
B4: TCR2 (anti-IL-17 IgG-TCR, Cα for CH1, Cβ for CL) (antibody)
heavy: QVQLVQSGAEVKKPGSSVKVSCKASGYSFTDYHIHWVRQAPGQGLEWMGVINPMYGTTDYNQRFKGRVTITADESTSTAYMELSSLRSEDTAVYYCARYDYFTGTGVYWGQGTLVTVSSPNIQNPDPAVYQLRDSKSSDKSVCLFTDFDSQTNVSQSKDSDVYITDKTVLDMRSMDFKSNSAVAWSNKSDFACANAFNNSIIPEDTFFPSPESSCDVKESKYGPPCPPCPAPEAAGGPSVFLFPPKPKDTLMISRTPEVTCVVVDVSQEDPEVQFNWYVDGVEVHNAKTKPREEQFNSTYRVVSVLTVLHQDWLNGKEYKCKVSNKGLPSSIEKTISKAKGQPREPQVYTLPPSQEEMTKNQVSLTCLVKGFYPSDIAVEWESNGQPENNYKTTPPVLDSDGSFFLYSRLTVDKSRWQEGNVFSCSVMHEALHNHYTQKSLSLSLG
light: DIVMTQTPLSLSVTPGQPASISCRSSRSLVHSRGNTYLHWYLQKPGQSPQLLIYKVSNRFIGVPDRFSGSGSGTDFTLKISRVEAEDVGVYYCSQSTHLPFTFGQGTKLEIKEDLNKVFPPEVAVFEPSEAEISHTQKATLVCLATGFFPDHVELSWWVNGKEVHSGVSTDPQPLKEQPALNDSRYCLSSRLRVSATFWQNPRNHFRCQVQFYGLSENDEWTQDRAKPVTQIVSAEAWGRADCGFTS
notes: IgG-TCR format with IgG4PAA hinge-Fc
B5: TCR8 (anti-IL-17 IgG-TCR, truncated Cα for CH1, Cβ for CL) (antibody)
heavy: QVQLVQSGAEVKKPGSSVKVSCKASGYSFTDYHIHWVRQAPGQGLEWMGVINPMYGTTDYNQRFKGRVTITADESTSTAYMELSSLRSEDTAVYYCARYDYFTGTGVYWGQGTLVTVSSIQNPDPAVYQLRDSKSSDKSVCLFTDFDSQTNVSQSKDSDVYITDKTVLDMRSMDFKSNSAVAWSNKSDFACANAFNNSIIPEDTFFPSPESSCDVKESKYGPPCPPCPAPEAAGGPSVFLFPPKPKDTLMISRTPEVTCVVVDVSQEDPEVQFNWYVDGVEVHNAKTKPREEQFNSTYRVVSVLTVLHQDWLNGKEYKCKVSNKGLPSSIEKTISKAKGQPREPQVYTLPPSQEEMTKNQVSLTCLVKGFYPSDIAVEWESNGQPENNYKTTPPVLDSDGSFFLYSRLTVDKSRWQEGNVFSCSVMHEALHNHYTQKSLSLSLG
light: B4 light
notes: as for B4
B6: TCR3 (anti-IL-17 IgG-TCR, truncated Cβ for CH1, truncated Cα for CL) (antibody)
heavy: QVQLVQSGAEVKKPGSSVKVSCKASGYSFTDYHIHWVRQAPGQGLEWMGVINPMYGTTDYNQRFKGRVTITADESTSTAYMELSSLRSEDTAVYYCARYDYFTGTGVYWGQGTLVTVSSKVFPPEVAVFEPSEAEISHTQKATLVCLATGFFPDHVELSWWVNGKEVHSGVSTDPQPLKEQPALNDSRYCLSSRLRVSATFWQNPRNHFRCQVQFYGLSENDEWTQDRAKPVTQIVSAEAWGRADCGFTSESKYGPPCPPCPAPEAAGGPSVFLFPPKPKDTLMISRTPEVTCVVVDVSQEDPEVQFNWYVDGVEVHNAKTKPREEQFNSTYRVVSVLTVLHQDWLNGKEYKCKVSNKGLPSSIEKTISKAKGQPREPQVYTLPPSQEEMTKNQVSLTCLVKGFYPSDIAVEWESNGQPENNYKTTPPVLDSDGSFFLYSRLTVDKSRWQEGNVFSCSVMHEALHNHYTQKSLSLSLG
light: DIVMTQTPLSLSVTPGQPASISCRSSRSLVHSRGNTYLHWYLQKPGQSPQLLIYKVSNRFIGVPDRFSGSGSGTDFTLKISRVEAEDVGVYYCSQSTHLPFTFGQGTKLEIKIQNPDPAVYQLRDSKSSDKSVCLFTDFDSQTNVSQSKDSDVYITDKTVLDMRSMDFKSNSAVAWSNKSDFACANAFNNSIIPEDTFFPSPESSCDVK
B7: anti-human IL-17 IgG4/κ antibody (antibody)
heavy: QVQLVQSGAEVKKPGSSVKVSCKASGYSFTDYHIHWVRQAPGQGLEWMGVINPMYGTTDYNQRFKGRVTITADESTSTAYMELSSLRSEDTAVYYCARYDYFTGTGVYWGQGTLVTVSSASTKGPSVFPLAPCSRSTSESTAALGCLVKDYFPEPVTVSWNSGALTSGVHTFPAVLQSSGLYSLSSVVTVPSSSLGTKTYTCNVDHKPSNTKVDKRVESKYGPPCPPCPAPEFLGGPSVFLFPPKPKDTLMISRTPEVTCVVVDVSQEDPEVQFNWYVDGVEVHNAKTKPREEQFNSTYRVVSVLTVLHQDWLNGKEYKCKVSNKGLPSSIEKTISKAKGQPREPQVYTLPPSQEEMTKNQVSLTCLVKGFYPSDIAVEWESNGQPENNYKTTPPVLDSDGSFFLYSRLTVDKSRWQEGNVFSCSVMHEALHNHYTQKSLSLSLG
light: DIVMTQTPLSLSVTPGQPASISCRSSRSLVHSRGNTYLHWYLQKPGQSPQLLIYKVSNRFIGVPDRFSGSGSGTDFTLKISRVEAEDVGVYYCSQSTHLPFTFGQGTKLEIKRTVAAPSVFIFPPSDEQLKSGTASVVCLLNNFYPREAKVQWKVDNALQSGNSQESVTEQDSKDSTYSLSSTLTLSKADYEKHKVYACEVTHQGLSSPVTKSFNRGEC
notes: Parent IgG4/kappa antibody of the IgG-TCR constructs TCR1-TCR8; also called Anti-IL17/IgG4; Anti-17 IgG4
B8: TCR4 (anti-IL-17 IgG-TCR, truncated Cα for CH1, truncated Cβ for CL) (antibody)
heavy: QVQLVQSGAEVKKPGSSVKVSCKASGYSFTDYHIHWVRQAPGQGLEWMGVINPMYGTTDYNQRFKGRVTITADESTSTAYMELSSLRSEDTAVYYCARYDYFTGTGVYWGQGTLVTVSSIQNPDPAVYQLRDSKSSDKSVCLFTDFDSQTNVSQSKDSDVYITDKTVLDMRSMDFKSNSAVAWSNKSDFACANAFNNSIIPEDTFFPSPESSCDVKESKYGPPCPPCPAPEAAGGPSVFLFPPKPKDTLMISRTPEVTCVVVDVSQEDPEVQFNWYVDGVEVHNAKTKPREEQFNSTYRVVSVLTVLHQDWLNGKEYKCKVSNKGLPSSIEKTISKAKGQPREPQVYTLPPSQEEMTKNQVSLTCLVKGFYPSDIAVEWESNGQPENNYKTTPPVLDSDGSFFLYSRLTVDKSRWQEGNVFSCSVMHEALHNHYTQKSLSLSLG
light: DIVMTQTPLSLSVTPGQPASISCRSSRSLVHSRGNTYLHWYLQKPGQSPQLLIYKVSNRFIGVPDRFSGSGSGTDFTLKISRVEAEDVGVYYCSQSTHLPFTFGQGTKLEIKKVFPPEVAVFEPSEAEISHTQKATLVCLATGFFPDHVELSWWVNGKEVHSGVSTDPQPLKEQPALNDSRYCLSSRLRVSATFWQNPRNHFRCQVQFYGLSENDEWTQDRAKPVTQIVSAEAWGRADCGFTS
notes: as for B4
B9: TCR6 (anti-IL-17 IgG-TCR, Cα for CH1, truncated Cβ for CL) (antibody)
heavy: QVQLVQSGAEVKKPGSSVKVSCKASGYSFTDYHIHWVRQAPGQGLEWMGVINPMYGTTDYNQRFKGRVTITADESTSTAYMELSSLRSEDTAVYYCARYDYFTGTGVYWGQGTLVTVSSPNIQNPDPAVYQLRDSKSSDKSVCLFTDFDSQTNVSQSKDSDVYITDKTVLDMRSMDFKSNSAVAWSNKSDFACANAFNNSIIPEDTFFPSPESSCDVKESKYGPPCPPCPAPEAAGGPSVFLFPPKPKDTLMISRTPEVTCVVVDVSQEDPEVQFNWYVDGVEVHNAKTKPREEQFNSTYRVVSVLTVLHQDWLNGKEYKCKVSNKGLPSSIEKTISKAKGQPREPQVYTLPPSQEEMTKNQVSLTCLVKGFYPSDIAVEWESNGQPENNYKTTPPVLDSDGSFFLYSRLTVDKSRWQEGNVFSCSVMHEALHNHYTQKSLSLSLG
light: B8 light
notes: as for B4

Bounds are passed on as bounds.

T3 sequence (chain, as listed by the source limits assumed): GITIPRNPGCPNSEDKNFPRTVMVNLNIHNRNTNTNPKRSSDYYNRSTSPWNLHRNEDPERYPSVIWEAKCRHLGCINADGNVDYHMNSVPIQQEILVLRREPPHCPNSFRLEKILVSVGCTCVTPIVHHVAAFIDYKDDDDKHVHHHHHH

In the first experiment the target is T1, hEGFR-Fc (Cat. #344-ER-050, R&D systems) (human, UniProt P00533 25-645).
T1 construct: Bought reagent; not shown: Fc part of the bought fusion
Put plainly: EGFR/HER-2 sandwich ELISA: hEGFR-Fc coat, compound titrated, detection with 0.2 µg/mL hHER-2-Histag and anti-His-HRP. The method, then: (§1) Specifically, clear 96-well round bottom high binding microtiter plates (Greiner) are coated overnight at 2-8° C. with 50 μL/well 1 μg/mL hEGFR-Fc (Cat. #344-ER-050, R&D systems) in a 50 mM Na₂CO₃ pH 9.4 buffer. The plate is washed 4× times with PBST and blocked with 100 μL/well casein buffer (Pierce) for 1 hr at 37° C. The plate is then washed 4× times with PBST and test compounds are added at 50 μL/well and 30 μg/mL […] and serially diluted 1:2 down the plate. The test compounds are incubated on the plate for 1 hr at 37° C. The plate is washed 4× times with PBST and 50 μL/well 0.2 μg/mL hHER-2-Histag (Sino Biologics) is added for 1 hr at 37° C. The plate is then washed 4× times with PBST followed by the addition of a 50 μL/well secondary anti-Histag-HRP antibody (PENTA-His-HRP, Qiagen) diluted 1:1000 in PBST. The secondary antibody is incubated for 1 hr at 37° C. The plate is then washed 4× times with PBST and 100 μL/well 1-component 3,3′,5,5′-Tetramethylbenzidine (TMB) substrate is added (KPL laboratories). After approximately 10 minutes, 100 μL/well 1% H₃PO₄ (in H₂O) is added to quench the reaction. Absorbance (450 nm) of every well in the plate is read using a SpectraMax UV plate reader (Molecular Devices).
For orientation: In an ELISA, binding on a coated surface is turned into a signal by an enzyme label.
For B1, the EC50 is less than 1 nM.

With B2, a half-maximal effect (EC50) was put at 2 nM.

The next experiment deals with T2, hHER-2-Histag (Sino Biologics) (human, UniProt P04626 23-652).
T2 construct: Bought reagent; not shown: His tag
Put plainly: EGFR/HER-2 sandwich ELISA: hEGFR-Fc coat, test compound, detection with hHER-2-Histag and anti-His-HRP. On the procedure:
as §1
With B3, the binding result is “no binding (tested: 30 µg/mL (20 nM), serially diluted 1:2)”.

Another experiment addresses T3, IL-17 (SEQ ID NO:80), hIL-17 with C-terminal FlagHis tag (human).
T3 construct: The entry holds the IL-17 part and the Flag-His tag
Put plainly: SPR (Biacore 3000): antibody captured on anti-human Fc, saturating IL-17 injected; RU of IL-17 per RU captured, relative to WT IgG. On the procedure:
The extent of HC/LC assembly is assessed using a kinetic Biacore experiment. Briefly, kinetic surface Plasmon resonance (SPR) experiments are performed using a Biacore 3000 (GE Healthcare). IgG-TCR proteins are captured onto CM5 sensorchip surfaces with an immobilized goat anti-human IgG-Fc polyclonal antibody (Jackson ImmunoResearch, Cat. #109-005-098). The goat polyclonal antibody immobilization is achieved by injecting the protein (at 50 μg/mL, pH 5) over an NHS/EDC activated sensorchip surface followed by blocking with ethanolamine (as described by manufacturer). The IgG or IgG-TCRs are captured onto the anti-human Fc sensorchip surface by injecting 10 μL of protein at 0.1 and 0.5 mg/mL using a 2 […]. Flow rates are increased to 10 μL/min followed by secondary 30 μL injections of IL-17 (SEQ ID NO:80) at 10 and 50 nM. Following a 15 minute dissociation period, the flow rate is increased to 60 μL/min and sensorchip surfaces are regenerated using two consecutive 10 μL injections of 0.1 M glycine, pH 2.0.
The experiment measures the percent activity by relating the amount of captured IgG or IgG-TCR (based on resonance units) with the secondary response generated using a saturating level of IL-17. The percent activity of each IgG-TCR is calculated based on a comparison with the WT IgG: […]
On the technique in general: Surface plasmon resonance follows binding to a sensor surface in real time, without labels.
Consider B4, for which the “Activity by kinetic Biacore (percent activity relative to WT IgG)” value turned out to be 35%. The same measure, in the same setting: in the case of B5 it was 48%; in that of B6, 17%; in that of B7, 100%. Turning to B8, the “Activity by kinetic Biacore (percent activity relative to WT IgG)” value was 54%. Take B9: the “Activity by kinetic Biacore (percent activity relative to WT IgG)” value was 35%.

By EC50 is commonly meant the concentration at which the effect is half-maximal. A low value points to an effect from little substance.

Source of the values: patent US20150183877A1 (Eli Lilly, published 2015).
